The record followed here is patent US20260347475 (published 2026).

The test concerns the target human PD1 (human, UniProt Q15116). Put plainly: ELISA.

Chain of human PD1 (Q15116 25-167): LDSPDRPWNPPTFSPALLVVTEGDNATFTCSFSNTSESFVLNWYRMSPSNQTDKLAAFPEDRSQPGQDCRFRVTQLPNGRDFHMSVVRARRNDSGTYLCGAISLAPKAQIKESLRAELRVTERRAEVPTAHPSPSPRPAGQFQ

B1: P-1150 (antibody, V domains shown)
VH: QVQLVQSGVEVKKPGASVKVSCKASGYTFTNYYMYWVRQAPGQGLEWMGGINPSNGGTNFAQKFQGRVTLTTDSSTTTAYMELKSLQFDDTAVYYCARRDYRFDMGFDYWGQGTTVTVSS
VL: EIVLTQSPATLSLSPGERATLSCRASQGVSTSGYSYLAWYQQKPGQAPRLLIYLASYRASGVPARFSGSGSGTDFTLTISSLEPEDFAVYYCQHSRDLPLTFGGGTKVEIKR
With B1, the concentration giving a half-maximal response (EC50) came to 0.088 nM.

B2: P-1153 (antibody, V domains shown)
VH: QVQLVQSGVEVKKPGASVKVSCKASGYTFTNYYMYWVRQAPGQGLEWMGGINPSNGGTNYAQKFQGRVTLTTDSSTTTAYMELKSLQFDDTAVYYCARRDYRFDMGFDYWGQGTTVTVSS
VL: EIVLTQSPATLSLSPGERATLSCRASQGVSTSGYSYLAWYQQKPGQAPRLLIYLASYRASGVPARFSGSGSGTDFTLTISSLEPEDFAVYYCQHSRDLPLTFGGGTKVEIKR
For the molecule B2, the EC50 came to 0.11 nM.

B3: P-1151 (antibody, V domains shown)
VH: QVQLVQSGVEVKKPGASVKVSCKASGYTFTNYYMYWVRQAPGQGLEWMGGINPSNGGTNYAQKFQGRVTLTTDSSTTTAYMELKSLQFDDTAVYYCARRDYRFDMGFDYWGQGTTVTVSS
VL: EIVLTQSPATLSLSPGERATLSCRASQGVSTSGYSYLHWYQQKPGQAPRLLIYLASYRASGVPARFSGSGSGTDFTLTISSLEPEDFAVYYCQHSRDLPLTFGGGTKVEIKR
In turn, B3 came in with an EC50 of 0.065 nM. This EC50 lies about 1.7-fold lower than the previous one.

B4: P-1148 (antibody, V domains shown)
VH: QVQLVQSGVEVKKPGASVKVSCKASGYTFTNYYMYWVRQAPGQGLEWMGGINPSNGGTNFAQKFQGRVTLTTDSSTTTAYMELKSLQFDDTAVYYCARRDYRFDMGFDYWGQGTTVTVSS
VL: EIVLTQSPATLSLSPGERATLSCRASQGVSTSGYSYLHWYQQKPGQAPRLLIYLASYRASGVPARFSGSGSGTDFTLTISSLEPEDFAVYYCQHSRDLPLTFGGGTKVEIKR
B4 came in with an EC50 of 0.093 nM.
